From patent US20100098683A1 (Dana-Farber, published 2010)

Target: T1, GST-galectin-3 (human, UniProt P08515 1-218 = GST)
T1 construct: Full-length galectin-3 in pGEX4T1; also called GST-galectin-3 fusion protein; GST fusion with full-length galectin-3
Experiment: GST-galectin-3 pull-down from BT549 lysates, anti-MUC1-C immunoblot
Protocol: Immunoblotting and precipitates. Lysates were prepared from subconfluent cells as described (Li et al., 2001).

T1 sequence (P08515 1-218, tags or fused parts left off): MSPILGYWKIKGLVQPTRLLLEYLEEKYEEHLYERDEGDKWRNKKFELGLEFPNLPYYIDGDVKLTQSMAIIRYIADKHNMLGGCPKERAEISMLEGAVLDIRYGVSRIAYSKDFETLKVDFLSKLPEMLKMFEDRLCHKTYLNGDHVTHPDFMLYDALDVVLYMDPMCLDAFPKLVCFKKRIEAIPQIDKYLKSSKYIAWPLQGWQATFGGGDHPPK

B1: MUC1-C(N36A) (receptor)
chain: SVVVQLTLAFREGTINVHDVETQFNQYKTEAASRYALTISDVSVSDVPFPFSAQSGAGVPGWGIALLVLVCVLVALAIVYLIALAVCQCRRKNYGQLDIFPARDTYHPMSEYPTYHTHGRYVPPSSTDRSPYEKVSAGNGGSSLSYTNPAVAATSANL
notes: Stably expressed in BT549 cells and tested in lysates; lacks the glycosylated 25-20 kDa species; also called MUC1-C with a N36A mutation
binding result: no binding
